In patent publication EP4755449A2 (CHUGAI SEIYAKU KABUSHIKI KAISHA, dated 2026):

T1: human latent myostatin (human, UniProt O14793 25-266; O14793 267-375)
T1 construct: non-covalent complex of two propeptides and the mature homodimer; also called human myostatin latent form
T1 sequence 1: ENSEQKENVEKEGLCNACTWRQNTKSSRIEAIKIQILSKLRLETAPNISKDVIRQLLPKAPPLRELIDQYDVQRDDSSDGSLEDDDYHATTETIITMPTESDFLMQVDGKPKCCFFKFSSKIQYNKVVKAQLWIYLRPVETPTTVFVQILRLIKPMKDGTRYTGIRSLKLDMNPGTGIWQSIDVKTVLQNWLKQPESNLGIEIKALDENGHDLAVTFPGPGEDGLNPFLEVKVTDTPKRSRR
T1 sequence 2: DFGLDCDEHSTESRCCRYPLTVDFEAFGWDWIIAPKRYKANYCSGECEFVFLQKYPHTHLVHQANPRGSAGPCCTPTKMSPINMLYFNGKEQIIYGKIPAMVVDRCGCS

T2: human Fc gamma RIIb extracellular domain, His-tagged (human, UniProt P31994 43-217)
T2 construct: also called FcgRIIb
T2 sequence: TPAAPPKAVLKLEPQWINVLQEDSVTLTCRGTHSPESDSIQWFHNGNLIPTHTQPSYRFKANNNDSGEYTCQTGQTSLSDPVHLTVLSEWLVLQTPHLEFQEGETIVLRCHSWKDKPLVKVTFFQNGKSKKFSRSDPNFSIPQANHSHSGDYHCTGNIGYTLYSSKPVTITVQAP

T3: cyno Fc gamma RIIb extracellular domain, His-tagged (cynomolgus monkey)
T3 construct: also called cynoFcgRIIb
T3 chain: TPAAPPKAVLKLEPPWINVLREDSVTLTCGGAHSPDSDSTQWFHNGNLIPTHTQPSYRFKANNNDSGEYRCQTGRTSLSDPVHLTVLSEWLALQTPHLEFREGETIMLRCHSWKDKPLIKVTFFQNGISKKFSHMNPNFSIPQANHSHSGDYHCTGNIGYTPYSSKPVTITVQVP


What was measured:
[1] = molecular target: T1, human latent myostatin; assay: SPR avidity condition pH7.4 37C; pH 7.4
[2] = molecular target: T1, human latent myostatin; assay: SPR affinity condition pH7.4 37C
[3] = molecular target: T1, human latent myostatin; assay: SPR avidity condition pH5.8 37C; pH 5.8
[4] = molecular target: T2, human Fc gamma RIIb extracellular …; assay: SPR 25C
[5] = molecular target: T3, cyno Fc gamma RIIb extracellular …; assay: SPR 25C

Row | binding result [4] | binding result [5] | Binder | also measured
1 | binds | binds | M103205H795-SG1 P331E/M103202L889-SK1 (antibody, human IgG1, kappa, copies: 2 + 2) heavy: not shown light: DIVMTQSPATLSLSPGERATLSCTSSQSVYHANWLSWFQQKPGQPPKLLIYWASTLAYGVPSRFSGSGSGTDFTLTISSLQPEDAATYYCAGGYGGGRYAFGQGTKVEIKRTVAAPSVFIFPPSDEQLKSGTASVVCLLNNFYPREAKVQWKVDNALQSGNSQESVTEQDSKDSTYSLSSTLTLSKADYEKHKVYACEVTHQGLSSPVTKSFNRGEC | –
2 | binds | binds | M103205H795-SG1 K334M/M103202L889-SK1 (antibody, human IgG1, kappa, copies: 2 + 2) heavy: not shown light: DIVMTQSPATLSLSPGERATLSCTSSQSVYHANWLSWFQQKPGQPPKLLIYWASTLAYGVPSRFSGSGSGTDFTLTISSLQPEDAATYYCAGGYGGGRYAFGQGTKVEIKRTVAAPSVFIFPPSDEQLKSGTASVVCLLNNFYPREAKVQWKVDNALQSGNSQESVTEQDSKDSTYSLSSTLTLSKADYEKHKVYACEVTHQGLSSPVTKSFNRGEC | –
3 | binds | binds | M103205H795-SG1 K334V/M103202L889-SK1 (antibody, human IgG1, kappa, copies: 2 + 2) heavy: not shown light: DIVMTQSPATLSLSPGERATLSCTSSQSVYHANWLSWFQQKPGQPPKLLIYWASTLAYGVPSRFSGSGSGTDFTLTISSLQPEDAATYYCAGGYGGGRYAFGQGTKVEIKRTVAAPSVFIFPPSDEQLKSGTASVVCLLNNFYPREAKVQWKVDNALQSGNSQESVTEQDSKDSTYSLSSTLTLSKADYEKHKVYACEVTHQGLSSPVTKSFNRGEC | –
4 | binds | binds | M103205H795-SG1 I332D/M103202L889-SK1 (antibody, human IgG1, kappa, copies: 2 + 2) heavy: not shown light: DIVMTQSPATLSLSPGERATLSCTSSQSVYHANWLSWFQQKPGQPPKLLIYWASTLAYGVPSRFSGSGSGTDFTLTISSLQPEDAATYYCAGGYGGGRYAFGQGTKVEIKRTVAAPSVFIFPPSDEQLKSGTASVVCLLNNFYPREAKVQWKVDNALQSGNSQESVTEQDSKDSTYSLSSTLTLSKADYEKHKVYACEVTHQGLSSPVTKSFNRGEC | –
5 | binds | binds | M103205H795-SG1 L235W/M103202L889-SK1 (antibody, human IgG1, kappa, copies: 2 + 2) heavy: not shown light: DIVMTQSPATLSLSPGERATLSCTSSQSVYHANWLSWFQQKPGQPPKLLIYWASTLAYGVPSRFSGSGSGTDFTLTISSLQPEDAATYYCAGGYGGGRYAFGQGTKVEIKRTVAAPSVFIFPPSDEQLKSGTASVVCLLNNFYPREAKVQWKVDNALQSGNSQESVTEQDSKDSTYSLSSTLTLSKADYEKHKVYACEVTHQGLSSPVTKSFNRGEC | –
6 | binds | binds | M103205H795-SG1 P271G/M103202L889-SK1 (antibody, human IgG1, kappa, copies: 2 + 2) heavy: not shown light: DIVMTQSPATLSLSPGERATLSCTSSQSVYHANWLSWFQQKPGQPPKLLIYWASTLAYGVPSRFSGSGSGTDFTLTISSLQPEDAATYYCAGGYGGGRYAFGQGTKVEIKRTVAAPSVFIFPPSDEQLKSGTASVVCLLNNFYPREAKVQWKVDNALQSGNSQESVTEQDSKDSTYSLSSTLTLSKADYEKHKVYACEVTHQGLSSPVTKSFNRGEC | –
7 | binds | binds | M103205H795-SG1 L234W/M103202L889-SK1 (antibody, human IgG1, kappa, copies: 2 + 2) heavy: not shown light: DIVMTQSPATLSLSPGERATLSCTSSQSVYHANWLSWFQQKPGQPPKLLIYWASTLAYGVPSRFSGSGSGTDFTLTISSLQPEDAATYYCAGGYGGGRYAFGQGTKVEIKRTVAAPSVFIFPPSDEQLKSGTASVVCLLNNFYPREAKVQWKVDNALQSGNSQESVTEQDSKDSTYSLSSTLTLSKADYEKHKVYACEVTHQGLSSPVTKSFNRGEC | –

Second part, the binder before the results:

Row | Binder | binding result [4] | binding result [5] | also measured
8 | MS_M103205H707-SG1/M103202L802-SK1 (antibody, human IgG1, kappa, V domains shown, also called MS1032LO04-SG1) VH: QVTLKESGPVLVKPTETLTLTCTVSGIDLSHYDISWVRQAPGKGLEWVGIISYAGSTYYASWAKGRLTISKDTSKNQVVLTMTNMDPVDTATYYCARGVPAYSHGGDLWGQGTLVTVSS VL: DIVMTQSPATLSLSPGERATLSCTSSQSVYHDNWLSWFQQKPGQPPKLLIYWASTLAYGVPSRFSGSGSGTDFTLTISSLQPEDAATYYCAGGYGGGLYAFGQGTKVEIKR | – | – | Kd [1]: 0.163 nM; koff [1]: 0.000217 s⁻¹; kon [1]: 1.33e+06 M⁻¹ s⁻¹; Kd [2]: 0.812 nM; koff [2]: 0.00125 s⁻¹; kon [2]: 1.54e+06 M⁻¹ s⁻¹; Kd [3]: 9.13 nM; koff [3]: 0.00713 s⁻¹; kon [3]: 781000 M⁻¹ s⁻¹
9 | MS_M103205H781-SG1/M103202L719-SK1 (antibody, human IgG1, kappa, V domains shown, also called MS1032LO02-SG1) VH: QVTLKESGPVLVKPTETLTLTCTVSGIDLSHTDISWVRQAPGKGLEWVGIISYAGSTYYMSWAKGRLTISKDTSKNQVVLTMTNMDPVDTATYYCARGVPAYSHGGDLWGQGTLVTVSS VL: DIVMTQSPATLSLSPGERATLSCQSSQSVYHNNWLSWFQQKPGQPPKLLIYWASTLAFGVPSRFSGSGSGTDFTLTISSLQPEDAATYYCAGGYGGGLYAFGQGTKVEIKR | – | – | Kd [1]: 0.298 nM; koff [1]: 0.000249 s⁻¹; kon [1]: 836000 M⁻¹ s⁻¹; Kd [2]: 1.64 nM; koff [2]: 0.00179 s⁻¹; kon [2]: 1.08e+06 M⁻¹ s⁻¹; Kd [3]: 24.3 nM; koff [3]: 0.0414 s⁻¹; kon [3]: 1.7e+06 M⁻¹ s⁻¹
10 | M103205H795-SG1 H268E/M103202L889-SK1 (antibody, human IgG1, kappa, copies: 2 + 2) heavy: not shown light: DIVMTQSPATLSLSPGERATLSCTSSQSVYHANWLSWFQQKPGQPPKLLIYWASTLAYGVPSRFSGSGSGTDFTLTISSLQPEDAATYYCAGGYGGGRYAFGQGTKVEIKRTVAAPSVFIFPPSDEQLKSGTASVVCLLNNFYPREAKVQWKVDNALQSGNSQESVTEQDSKDSTYSLSSTLTLSKADYEKHKVYACEVTHQGLSSPVTKSFNRGEC | binds | binds | –
11 | M103205H795-SG1 P396M/M103202L889-SK1 (antibody, human IgG1, kappa, copies: 2 + 2) heavy: not shown light: DIVMTQSPATLSLSPGERATLSCTSSQSVYHANWLSWFQQKPGQPPKLLIYWASTLAYGVPSRFSGSGSGTDFTLTISSLQPEDAATYYCAGGYGGGRYAFGQGTKVEIKRTVAAPSVFIFPPSDEQLKSGTASVVCLLNNFYPREAKVQWKVDNALQSGNSQESVTEQDSKDSTYSLSSTLTLSKADYEKHKVYACEVTHQGLSSPVTKSFNRGEC | binds | binds | –
12 | M103205H795-SG1 S239V/M103202L889-SK1 (antibody, human IgG1, kappa, copies: 2 + 2) heavy: not shown light: DIVMTQSPATLSLSPGERATLSCTSSQSVYHANWLSWFQQKPGQPPKLLIYWASTLAYGVPSRFSGSGSGTDFTLTISSLQPEDAATYYCAGGYGGGRYAFGQGTKVEIKRTVAAPSVFIFPPSDEQLKSGTASVVCLLNNFYPREAKVQWKVDNALQSGNSQESVTEQDSKDSTYSLSSTLTLSKADYEKHKVYACEVTHQGLSSPVTKSFNRGEC | binds | binds | –
13 | M103205H795-SG1 Q295L/M103202L889-SK1 (antibody, human IgG1, kappa, copies: 2 + 2) heavy: not shown light: DIVMTQSPATLSLSPGERATLSCTSSQSVYHANWLSWFQQKPGQPPKLLIYWASTLAYGVPSRFSGSGSGTDFTLTISSLQPEDAATYYCAGGYGGGRYAFGQGTKVEIKRTVAAPSVFIFPPSDEQLKSGTASVVCLLNNFYPREAKVQWKVDNALQSGNSQESVTEQDSKDSTYSLSSTLTLSKADYEKHKVYACEVTHQGLSSPVTKSFNRGEC | binds | binds | –
14 | M103205H795-SG1 S267A/M103202L889-SK1 (antibody, human IgG1, kappa, copies: 2 + 2) heavy: not shown light: DIVMTQSPATLSLSPGERATLSCTSSQSVYHANWLSWFQQKPGQPPKLLIYWASTLAYGVPSRFSGSGSGTDFTLTISSLQPEDAATYYCAGGYGGGRYAFGQGTKVEIKRTVAAPSVFIFPPSDEQLKSGTASVVCLLNNFYPREAKVQWKVDNALQSGNSQESVTEQDSKDSTYSLSSTLTLSKADYEKHKVYACEVTHQGLSSPVTKSFNRGEC | binds | binds | –
15 | M103205H795-SG1 K334I/M103202L889-SK1 (antibody, human IgG1, kappa, copies: 2 + 2) heavy: not shown light: DIVMTQSPATLSLSPGERATLSCTSSQSVYHANWLSWFQQKPGQPPKLLIYWASTLAYGVPSRFSGSGSGTDFTLTISSLQPEDAATYYCAGGYGGGRYAFGQGTKVEIKRTVAAPSVFIFPPSDEQLKSGTASVVCLLNNFYPREAKVQWKVDNALQSGNSQESVTEQDSKDSTYSLSSTLTLSKADYEKHKVYACEVTHQGLSSPVTKSFNRGEC | binds | binds | –
16 | M103205H795-SG1 K326T/M103202L889-SK1 (antibody, human IgG1, kappa, copies: 2 + 2) heavy: not shown light: DIVMTQSPATLSLSPGERATLSCTSSQSVYHANWLSWFQQKPGQPPKLLIYWASTLAYGVPSRFSGSGSGTDFTLTISSLQPEDAATYYCAGGYGGGRYAFGQGTKVEIKRTVAAPSVFIFPPSDEQLKSGTASVVCLLNNFYPREAKVQWKVDNALQSGNSQESVTEQDSKDSTYSLSSTLTLSKADYEKHKVYACEVTHQGLSSPVTKSFNRGEC | binds | binds | –
17 | M103205H795-SG1 S298L/M103202L889-SK1 (antibody, human IgG1, kappa, copies: 2 + 2) heavy: not shown light: DIVMTQSPATLSLSPGERATLSCTSSQSVYHANWLSWFQQKPGQPPKLLIYWASTLAYGVPSRFSGSGSGTDFTLTISSLQPEDAATYYCAGGYGGGRYAFGQGTKVEIKRTVAAPSVFIFPPSDEQLKSGTASVVCLLNNFYPREAKVQWKVDNALQSGNSQESVTEQDSKDSTYSLSSTLTLSKADYEKHKVYACEVTHQGLSSPVTKSFNRGEC | binds | binds | –
